Assay results from paper PMC8455617 (2021).

Tests used:
[1] = molecular target: Mitochondrial citrate synthase (CS) (UniProt P00889); test: Microscale thermophoresis (MST), Monolith NT.115, nano-red excitation, MST power 40%, excitation power 80%; details: 23 °C, 0.1 M potassium phosphate, no further salt stated, 0.1 M potassium phosphate at pH 6, 7 or 8 (the same buffer species at all pH values)
[2] = molecular target: T1, citrate synthase, mitochondrial (Sus scrofa, UniProt P00889); test: MST
T1 chain: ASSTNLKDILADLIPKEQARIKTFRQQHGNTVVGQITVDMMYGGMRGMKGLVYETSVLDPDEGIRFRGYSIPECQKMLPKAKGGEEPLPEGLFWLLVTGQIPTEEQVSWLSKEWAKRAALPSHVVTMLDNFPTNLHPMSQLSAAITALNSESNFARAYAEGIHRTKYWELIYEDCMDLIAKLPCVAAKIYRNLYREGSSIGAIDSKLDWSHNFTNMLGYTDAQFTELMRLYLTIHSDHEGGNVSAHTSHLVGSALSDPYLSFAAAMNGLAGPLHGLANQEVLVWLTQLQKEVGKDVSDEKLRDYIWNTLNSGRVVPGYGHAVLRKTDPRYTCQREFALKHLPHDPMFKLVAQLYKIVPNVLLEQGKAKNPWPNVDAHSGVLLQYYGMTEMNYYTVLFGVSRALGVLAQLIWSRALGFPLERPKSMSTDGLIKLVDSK

[3] = molecular target: T1, citrate synthase, mitochondrial; test: MST (pH 6)
[4] = molecular target: T1, citrate synthase, mitochondrial; test: MST (pH 7)

Mitochondrial malate dehydrogenase (MDH), fluorescently labelled
Kd ([1]; pH 6): 680 ± 50 nM
Kd ([1]; pH 7): 1600 ± 450 nM
Kd ([1]; pH 8): 2290 ± 460 nM

B1: malate dehydrogenase, mitochondrial (protein)
chain: AKVAVLGASGGIGQPLSLLLKNSPLVSRLTLYDIAHTPGVAADLSHIETRATVKGYLGPEQLPDCLKGCDVVVIPAGVPRKPGMTRDDLFNTNATIVATLTAACAQHCPDAMICIISNPVNSTIPITAEVFKKHGVYNPNKIFGVTTLDIVRANAFVAELKGLDPARVSVPVIGGHAGKTIIPLISQCTPKVDFPQDQLSTLTGRIQEAGTEVVKAKAGAGSATLSMAYAGARFVFSLVDAMNGKEGVVECSFVKSQETDCPYFSTPLLLGKKGIEKNLGIGKISPFEEKMIAEAIPELKASIKKGEEFVKNMK
Kd [2]: 2290 nM
Kd [3]: 680 nM
Kd [4]: 1600 nM

B2: malate dehydrogenase, mitochondrial (protein)
chain: B1 chain
modifications: 10 mM fumarate
Kd [2]: 1580 nM

B3: malate dehydrogenase, mitochondrial (protein)
chain: B1 chain
modifications: 10 mM acetyl-CoA
Kd [2]: 1100 nM

B4: malate dehydrogenase, mitochondrial (protein)
chain: B1 chain
modifications: 10 mM NAD+
Kd [2]: 890 nM
